B1: Azoarcus group I ribozyme (parent)
chain: GUGCCUUGCGCCGGGAAACCACGCAAGGGAUGGUGUCAAAUUCGGCGAAACCUAAGCGCCCGCCCGGGCGUAUGGCAACGCCGAGCCAAGCUUCGGCGCCUGCGCCGAUGAAGGUGUAGAGACUAGACGGCACCCACCUAAGGCAAACGCUAUGGUGAAGGCAUAGUCCAGGGAGUGGCGAAAGUCACACAAACCGG

This series covers variants of B1. The experiment in a line: reverse-splicing fitness (ratio to wild type); higher = more active; in vitro selection; Mg2+ level not given. In outline:
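An in vitro group I ribozyme library with randomized positions was T7-transcribed and gel-purified. In triplicate, 10 pmol RNA in EPPS pH 7.5 was reacted with 50 pmoles of a 30-nt RNA substrate for 1 h at 37 °C across several added MgCl2 levels (1–48 mM), then stopped with EDTA. Products were reverse transcribed from a substrate-complementary primer, PCR-amplified and sequenced (HiSeq 4000). Fitness is a variant's read proportion after selection over that before, normalised to wild type.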
In the case of C82U A111G A145C C169A U176G, the reverse-splicing fitness turned out to be 0.00408. The figure for C82U A111G A145C C169A U176C is 0.00406; for C82U A111G A145C C169A U176A it is 0.00798; for C82U A111G A145G C150A C169U U176C it is 0.0151. Under C82U A111G A145G C150A C169U U176G stands 0.00552. Under C82U A111G A145G C150A C169U U176A stands 0.0135. As for C82U A111G A145G C150G C169G U176C, the reverse-splicing fitness worked out at 0.00848. Under C82U A111G A145G C150G C169G U176A stands 0.00977.

Consider C82U A111G A145G C150G C169G U176G, for which the reverse-splicing fitness was determined as 0.00507. Under C82U A111G C150A stands 0.0385; under C82U A111G A145G C150A U176C, 0.0481; under C82U A111G A145G C150A U176G, 0.0108. C82U A111G A145G C150A U176A: the reverse-splicing fitness amounted to 0.0328. The figure for C82U A111G A145U U176G is 0.0781. Under C82U A111G A145U U176A stands 0.204. Under C82U A111G A145U U176C stands 0.258; under C82U A111G A145G U176G, 0.048; under C82U A111G A145G U176C, 0.265.

For the variant C82U A111G A145G U176A, the reverse-splicing fitness is 0.201. Under C82U A111G C150A C169U stands 0.00979; under C82U A111G C150A C169G, 0.00918.

For the variant C82U A111G C150A C169A, the reverse-splicing fitness stood at 0.00969. Under C82U A111G A145U C150G C169G U176A stands 0.00668. Take C82U A111G A145U C150G C169G U176G: the reverse-splicing fitness is 0.00515. Under C82U A111G A145U C150G C169G U176C stands 0.00527; under C82U A111G A145C C150U C169U, 0.00947. The figure for C82U A111G A145C C150U C169G is 0.00755. Under C82U A111G A145C C169U stands 0.00982; under C82U A111G A145C C169G, 0.0078; under C82U A111G A145C C169A, 0.00618. Consider C82U A111G A145G C169U, for which the reverse-splicing fitness was determined as 0.0113.

On to C82U A111G A145G C169A, for which the reverse-splicing fitness amounted to 0.00814.

On to C82U A111G A145G C169G, for which the reverse-splicing fitness came out at 0.00933. The figure for C82U A111G A145G C150U U176A is 0.135; for C82U A111G A145G C150U U176G it is 0.0312; for C82U A111G A145G C150U U176C it is 0.193. Under C82U A111G A145G C150U C169A U176A stands 0.0161; under C82U A111G A145G C150U C169A U176C, 0.0167; under C82U A111G A145G C150U C169A U176G, 0.00534. The figure for C82U A111G A145U C150G C169G is 0.00642. With C82U A111G A145U C150G C169U, the reverse-splicing fitness was 0.00901. The figure for C82U A111G A145U C150G C169A is 0.00869; for C82U A111G A145G C169U U176G it is 0.0046; for C82U A111G A145G C169U U176C it is 0.0129.

For the variant C82U A111G A145G C169U U176A, the reverse-splicing fitness turned out to be 0.0117. For C82U A111G A145U C150U U176G, the reverse-splicing fitness came out at 0.0347.

For the variant C82U A111G A145U C150U U176A, the reverse-splicing fitness was determined as 0.123. The figure for C82U A111G A145U C150U U176C is 0.172; for C82U A111G A145G C150U C169G U176G it is 0.00547. The figure for C82U A111G A145G C150U C169G U176C is 0.0174; for C82U A111G A145G C150U C169G U176A it is 0.0169. Under C82U A111G A145U C150U C169G U176A stands 0.0118. Take C82U A111G A145U C150U C169G U176G: the reverse-splicing fitness is 0.00489. Under C82U A111G A145U C150U C169G U176C stands 0.0105.

In the case of C82U A111G A145G C150G U176A, the reverse-splicing fitness turned out to be 0.00967.

Turning to C82U A111G A145G C150G U176C, the reverse-splicing fitness is 0.0206. For C82U A111G A145G C150G U176G, the reverse-splicing fitness stood at 0.00618. As for C82U A111G C150A C169U U176C, the reverse-splicing fitness stood at 0.0161. With C82U A111G C150A C169U U176A, the reverse-splicing fitness stood at 0.0155. For C82U A111G A145U C150G U176A, the reverse-splicing fitness is 0.0137.

Turning to C82U A111G A145U C150G U176G, the reverse-splicing fitness came out at 0.00442. The figure for C82U A111G A145U C150G U176C is 0.0255; for C82U A111G A145G C150A it is 0.0568. Under C82U A111G A145G C150G stands 0.0407. Under C82U A111G A145G C150U stands 0.334; under C82U A111G A145C U176C, 0.242; under C82U A111G A145C U176A, 0.178. For the variant C82U A111G A145C U176G, the reverse-splicing fitness amounted to 0.0614. Consider C82U A111G A145U C169A, for which the reverse-splicing fitness was determined as 0.00645. Regarding C82U A111G A145U C169G, the reverse-splicing fitness was determined as 0.00731. For C82U A111G A145U C169U, the reverse-splicing fitness turned out to be 0.0102. Under C82U A111G A145G C150G C169G stands 0.007. Under C82U A111G A145G C150G C169U stands 0.00891. On to C82U A111G A145G C150G C169A, for which the reverse-splicing fitness worked out at 0.00883. In the case of C82U A111G A145C C150U C169A U176G, the reverse-splicing fitness was 0.00526. The figure for C82U A111G A145C C150U C169U U176A is 0.0119; for C82U A111G A145C C150U C169U U176G it is 0.00493; for C82U A111G A145C C150U C169U U176C it is 0.00834. The figure for C82U A111G A145U C169A U176A is 0.00885; for C82U A111G A145U C169A U176G it is 0.00528; for C82U A111G A145U C169A U176C it is 0.00683. The figure for C82U A111G A145U C150A U176C is 0.0305; for C82U A111G A145U C150A U176G it is 0.0097. As to C82U A111G A145U C150A U176A, the reverse-splicing fitness worked out at 0.0234.

Source of the values: the RNAGym collection of RNA variant scans (doi:10.1093/molbev/msab373).
